Results reported in paper PMC3810028.
Like-named read-outs stand apart in the source and are kept apart here.

Legend:
[1] = molecular target: HIV-1 YU-2 envelope gp120 with a C-terminal hexa-histidine tag (HIV-1 (YU-2 strain)) (UniProt P35961); test: ITC
[2] = molecular target: HIV-1 YU-2 envelope gp120 with a C-terminal hexa-histidine tag (HIV-1 (YU-2 strain)) (UniProt P35961); test: SPR
[3] = molecular target: HIV-1 YU-2 envelope gp120 with a C-terminal hexa-histidine tag (HIV-1 (YU-2 strain)) (UniProt P35961); test: SPR; remark: listed apart in the source
[4] = molecular target: HIV-1 YU-2 envelope gp120 with a C-terminal hexa-histidine tag (HIV-1 (YU-2 strain)) (UniProt P35961)

dH [1] [kcalmol^−1] | IC50 [2] [nM] | Substance | IC50 [3] [nM] | Kd [1] [nM] | EC50 of inhibition of single-round infection by HIV-1BaL (Env of BaL, not YU-2) [4] [nM]
-14.9 | 50.8 | peptide triazole KR-41 (UM-24 with Trp 6 replaced by L-3-benzothienylalanine, Bta) | – | – | –
-14.6 | 208 | peptide triazole KR-42 (DCit-DAsn-DAsn-DIle-LFtP-LBta-DSer-NH2) | 119 | 282 | –

Substance | dH [1] [kcalmol^−1] | IC50 [2] [nM] | IC50 [3] [nM] | Kd [1] [nM] | EC50 of inhibition of single-round infection by HIV-1BaL (Env of BaL, not YU-2) [4] [nM]
peptide triazole UM-24 (Cit-N-N-I-X-W-S-CONH2) | -14.1 | 71.5 | 45 | 21.1 | 6200
